Laboratory results as given in the supplement of paper PMC12764529.
± gives the half width of the 95% confidence interval.

Test: folding stability dG unfold from chymotrypsin proteolysis; higher = more stable
Summary of the method: (§1)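 Designed mini-proteins with no cysteine and under 80 residues were kept only if AlphaFold2 dimer inter-PAE was above 15. In a PA-tagged cDNA display construct, they were digested with trypsin and chymotrypsin and then sequenced. K50 was inferred by Bayesian fitting of counts, and unfolding free energy was derived per protease or combined against a sequence-predicted unfolded-state K50 and a shared folded-state K50.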

Row | Sequence | folding stability dG unfold
1 | SAGGSAGGSAKRKVIEVDSLEEIKKAIEEAKEGEVVEIVVRDPETNETYTLKVVDGKIVLIPSAGGSAGGSA [r18_407_TrROS_Hall] | 2.664 ± 0.014 kcal/mol
2 | SAGGSAGGSAGKKKLTVTVKKKKPAKEKKKVKTKVVKEKKLELSEEELKKLLDELKELLESAGGSAGGSAGG [r11_418_TrROS_Hall] | -0.447 ± 0.14 kcal/mol
3 | SAGGSAGGSAGMVTETTVSRLPDGTVTTTTTEYVVHPDGSLEPVRERTTTTPVPPDVPAASAGGSAGGSAGG [r11_440_JUSTAS] | 1.142 ± 0.011 kcal/mol
4 | SAGGSAMTIEIEAPVPAGVEVDATALFVTPDGYLYLAEVRSVGPGWARITIPVYRFDDNLDDPDFLSAGGSA [r15_909_TrMRF] | 2.19 ± 0.042 kcal/mol
5 | SAGMPETITIKIRNPETGKLYEIEIEKVDGEVKVTIRDVETGKERREITMTPEEVRELLKELGFEVEEVSAG [r5_291_TrROS_Hall] | 3.1 ± 0.056 kcal/mol
6 | SAGGSAGGSDNVKIEWEYNPENGVYTHEVYYDDGRPVTIIINPAEGPIWVFDPPDGKPIAPIPSAGGSAGGS [r12_657_TrROS] | 0.833 ± 0.023 kcal/mol
7 | SAGGSAGGSMEEIIEEIKKKVPKDKYAEIEIEVPFPDGSKKKFKIKFYPETNEFEVEELEEIPSAGGSAGGS [r12_305_TrMRF] | 4.12 ± 0.23 kcal/mol
8 | SAGGSAGGSAGFHIDVEVHRDDEGYVKVRVKMYMYNPDPGEPMGSFEMTIWIPPEDADKLSAGGSAGGSAGG [r11_575_TrROS] | 3.9 ± 0.056 kcal/mol
9 | SAGGSEEIKKLLASGQLDEVIALLKKKGYENVTVTPDPRKPVVTINVTKTDPKTGKKKTTTITIPTGLSAGG [r13_359_JUSTAS] | 4.03 ± 0.052 kcal/mol
10 | SAGGSAGGSAGVPDNAKIRLAFEFDGYIVLIEATPGTGFIKNIDKVEVFPVIPNTGEVTGSAGGSAGGSAGG [r11_66_TrMRF] | 1.85 ± 0.1 kcal/mol
11 | SAGGSAGGSAGGSWLEFTFIDPGYGWIISTMKIEINPNGNLNMDMEMVPLKPADDPEDASAGGSAGGSAGGS [r4_178_TrROS] | 3.32 ± 0.099 kcal/mol
12 | SAGGSAGGSATRVEVEWKDGYLVITKYETLPNGEWKEVKTIVIPIEGNDPIAIEKAKEVIEKLSAGGSAGGS [r12_169_JUSTAS] | 2.89 ± 0.049 kcal/mol
13 | SAGMEITTVTLPDGTKLITITLPVPGGPSITADVPYDPATGKVTLLKITGEDPALEALAKEAVEKLKKESAG [r5_266_JUSTAS] | 1.17 ± 0.053 kcal/mol
14 | SAGGSAGGKKVYEIKGLTPEQIRALVKENKGKVTIYYKDGKKEEKTIKEGDEIAPGETVYIEVESAGGSAGG [r6_303_TrROS_Hall] | 1.74 ± 0.13 kcal/mol
15 | SAGGMTEVSVSEELRAEGGGLERVLVVTITTVTKVYPVGSSNKVEYEESTIVIPADDPAALEAAGVLLSAGG [r13_670_JUSTAS] | -0.319 ± 0.36 kcal/mol
16 | SAGGSAGGSASVTVVPSPGPTTTVVTFSPDDTVTVTTHTVDPSAATSTPTTTTVSLSDPAAASAGGSAGGSA [r18_503_JUSTAS] | 1.44 ± 0.015 kcal/mol
17 | SAGGSAGGSSMTITVTDLVTGEPGEIPEELKAELAAEAEESGSAVTFEITTPDGKKYRAEITPSAGGSAGGS [r12_41_JUSTAS] | 1.13 ± 0.088 kcal/mol
18 | SAGGSAGGSAGSMSLPVTELVVESVDPLEGVLVVKVKGTLPDGSEVELTLEFKPDEPLELSAGGSAGGSAGG [r11_211_JUSTAS] | 0.375 ± 0.066 kcal/mol
19 | SAGGSATLTLEAEFRLEDGTTVRVRVEVSPDGTVRIEVEVLPAPPPPPKVEVKEVFTTADGRKVLLSAGGSA [r2_78_TrROS_Hall] | 1.62 ± 0.063 kcal/mol
20 | SAGGSAGGSAGFYKAKLKILKTKVYSNEKGTKKKTYKPVLILEELIPPKIPKELWEKLNKSAGGSAGGSAGG [r11_318_TrMRF] | 0.528 ± 0.4 kcal/mol
21 | SAGIPYRVLELEIPGVGVRVEVRLAPDGRIVEVRVTVVPVPPVPPALPLRPELLVPDEDGRWYSPEELLSAG [r5_685_TrMRF] | 2.26 ± 0.028 kcal/mol

Test: folding stability dG unfold from trypsin proteolysis; higher = more stable
Summary of the method: as §1

Row | Sequence | folding stability dG unfold
22 | SAGMKVPVTVKMKAEKEEELEKVIKEIKEETGFEFEVEKNPETKEYTVKVYATPEVVEILKKKGFDVESAGG [r19_306_TrMRF] | 1.9 ± 0.14 kcal/mol
23 | SAGGSAGGSAGGQLKLKLKVKVTTRVRDPATGKTYTVTEEVEVTVELEFPPPPLPPGFKSAGGSAGGSAGGS [r10_1026_TrROS_Hall] | 2.7 ± 0.22 kcal/mol
24 | SLKPGEWVMFMFTIPITIRITKDDLPPGWKIKEVTIRIYVMFLFRVDPDGNFKILSFNIMIEIEVKYEPDSA [r9_747_TrROS] | 4.52 ± 0.13 kcal/mol
25 | SAGGSAGGSAGLTFTLPDGTKITIETLEDGSVKIKIETLTPDGKPLEAEFVIPGSHPDEDSAGGSAGGSAGG [r17_471_TrMRF] | 3.2 ± 0.15 kcal/mol
26 | SAGGGKTVEVTIEVPGENAVVYIKVYDKDKPISVFPAEFIPPTGTATFTIDVPEDAEITAEVALPEEASAGG [r13_977_TrMRF] | 0.106 ± 0.033 kcal/mol
27 | SAMTKTETFTFDDVEITVTTTEVTLPNGEKKDVYTLTKYTVDPSTGTTTPSSKTFSSKEEMEAALKASLSAG [r14_500_JUSTAS] | 3.6 ± 0.27 kcal/mol
28 | SAGGSGGLRVELPFLLPDGYRVTLTVNPETGEITEIRVEPIDAVPPEPEVLPVVGFDPRYGVPLVLSAGGSA [r2_78_TrMRF] | 1.12 ± 0.026 kcal/mol
29 | SAGGMIRIERDGDRLTIQIPMPPGQPPTPEQVEEFARDILKKLGPDVRVKDVSHDPNGGFTIELKVPSAGGS [r8_103_TrROS] | 1.48 ± 0.028 kcal/mol
30 | SAGGITIRGMPWEWAEEIAKTLAQEGYRLKDVEVEEDPPDGYYSVTVQQRDPETGKPKKPVTISIPPSAGGS [r16_750_TrROS] | 0.594 ± 0.13 kcal/mol
31 | SAGDNLKIDVEVEPAKVILGEFDENGKLIKPIEKDVLIVKVTVTFSNGKKLEIRATFFDGKLISVSSGSAGG [r19_44_TrMRF] | 3.56 ± 0.16 kcal/mol
32 | SAGPDLPFDVRLVEVRDMEVRVTPDGRLVVTLPMVGRHPSGFLVRRTIRFEPETDRVEATGEVRPLDESAGG [r19_320_TrMRF] | 0.581 ± 0.062 kcal/mol
33 | SAGGSAGGSAGDAEEIADEIRENMYGPDGKYVPKEVEIKEIEPPPGQLKVEIEMPPGMPISAGGSAGGSAGG [r17_519_TrROS] | 1.81 ± 0.13 kcal/mol
34 | SAGKKVTIKAIVRVKLANGEWFEAKVKEVTFDEETGEVTITVEVDGKTYTITVPLEDIELVDDAEEALKSAG [r5_15_TrROS_Hall] | 2.19 ± 0.034 kcal/mol
35 | SMSTNLVVKEKLIPPGVLVVTYKKDGKPVKVETKVVVIPPQLVVEEVLYPGGKLALKTYDPLTGTPSFELSA [r9_343_JUSTAS] | -0.122 ± 0.14 kcal/mol
36 | SAGGSSSMVTRTPSTSTVTVKRGNGPVTVSLPTTVVTRPDGSRTLETTVDTKDPAGNPAATTVTPAPSAGGS [r16_581_JUSTAS] | 0.0362 ± 0.1 kcal/mol
37 | SAGGSAMTAEELARKLFPGAEVEVEVRLERNEDGSLSLRVEVRVRAAPPPEEEEVEEPEEVEEEEESAGGSA [r15_417_TrROS_Hall] | 2.78 ± 0.16 kcal/mol
38 | SAGHPWMFRAKVEYDDGKPVGEREINIPGMPIDDIASDLFNEPGLRKVKIEFYWMDGEPQEIEIPVKPSAGG [r19_269_TrROS] | 0.801 ± 0.097 kcal/mol
39 | SAGGSAGGSAGGSWITFRIPEGNPEFIEELARGFGIKPKRINPNRGTITIKLPPGAKIVSAGGSAGGSAGGS [r4_3_TrROS] | 0.474 ± 0.12 kcal/mol
40 | SAGGSAGGKKIRIRIPLPDGTWVEVEVYFSEDGIYSFYIPPTGKLVLIDVGENGIKITIIDLPPSAGGSAGG [r6_58_TrMRF] | 4.1 ± 0.32 kcal/mol
41 | SAGGSAGGSAPPVKTITVELVFFNPETQEVFVLRAEVRLLPDGTLEIRTEIERVKVEPGAVLLSAGGSAGGS [r12_116_TrROS_Hall] | 1.64 ± 0.096 kcal/mol
42 | SAGGSAGGSAVETLVTYEVPEDLPPDSLSPEAVIARFAPLGVPTEVVEIDPATGTVTVRTLVPSAGGSAGGS [r12_733_JUSTAS] | -0.377 ± 0.13 kcal/mol

Row | Sequence | folding stability dG unfold
43 | SAGGSAGGSAKRKVIEVDSLEEIKKAIEEAKEGEVVEIVVRDPETNETYTLKVVDGKIVLIPSAGGSAGGSA [r18_407_TrROS_Hall] | 1.32 ± 0.039 kcal/mol
44 | SAGGSAGGSAGKKKLTVTVKKKKPAKEKKKVKTKVVKEKKLELSEEELKKLLDELKELLESAGGSAGGSAGG [r11_418_TrROS_Hall] | 0.624 ± 0.079 kcal/mol
45 | SAGGSAGGSAGMVTETTVSRLPDGTVTTTTTEYVVHPDGSLEPVRERTTTTPVPPDVPAASAGGSAGGSAGG [r11_440_JUSTAS] | 0.396 ± 0.051 kcal/mol
46 | SAGGSAMTIEIEAPVPAGVEVDATALFVTPDGYLYLAEVRSVGPGWARITIPVYRFDDNLDDPDFLSAGGSA [r15_909_TrMRF] | 2.04 ± 0.045 kcal/mol
47 | SAGMPETITIKIRNPETGKLYEIEIEKVDGEVKVTIRDVETGKERREITMTPEEVRELLKELGFEVEEVSAG [r5_291_TrROS_Hall] | 1.42 ± 0.049 kcal/mol
48 | SAGGSAGGSDNVKIEWEYNPENGVYTHEVYYDDGRPVTIIINPAEGPIWVFDPPDGKPIAPIPSAGGSAGGS [r12_657_TrROS] | 1.36 ± 0.05 kcal/mol
49 | SAGGSAGGSMEEIIEEIKKKVPKDKYAEIEIEVPFPDGSKKKFKIKFYPETNEFEVEELEEIPSAGGSAGGS [r12_305_TrMRF] | 3.12 ± 0.26 kcal/mol
50 | SAGGSAGGSAGFHIDVEVHRDDEGYVKVRVKMYMYNPDPGEPMGSFEMTIWIPPEDADKLSAGGSAGGSAGG [r11_575_TrROS] | 3.33 ± 0.14 kcal/mol
51 | SAGGSEEIKKLLASGQLDEVIALLKKKGYENVTVTPDPRKPVVTINVTKTDPKTGKKKTTTITIPTGLSAGG [r13_359_JUSTAS] | 3.62 ± 0.1 kcal/mol
52 | SAGGSAGGSAGVPDNAKIRLAFEFDGYIVLIEATPGTGFIKNIDKVEVFPVIPNTGEVTGSAGGSAGGSAGG [r11_66_TrMRF] | 1.53 ± 0.07 kcal/mol
53 | SAGGSAGGSAGGSWLEFTFIDPGYGWIISTMKIEINPNGNLNMDMEMVPLKPADDPEDASAGGSAGGSAGGS [r4_178_TrROS] | 2.38 ± 0.13 kcal/mol
54 | SAGGSAGGSATRVEVEWKDGYLVITKYETLPNGEWKEVKTIVIPIEGNDPIAIEKAKEVIEKLSAGGSAGGS [r12_169_JUSTAS] | 2.89 ± 0.051 kcal/mol
55 | SAGMEITTVTLPDGTKLITITLPVPGGPSITADVPYDPATGKVTLLKITGEDPALEALAKEAVEKLKKESAG [r5_266_JUSTAS] | 0.68 ± 0.032 kcal/mol
56 | SAGGSAGGKKVYEIKGLTPEQIRALVKENKGKVTIYYKDGKKEEKTIKEGDEIAPGETVYIEVESAGGSAGG [r6_303_TrROS_Hall] | 0.858 ± 0.11 kcal/mol
57 | SAGGMTEVSVSEELRAEGGGLERVLVVTITTVTKVYPVGSSNKVEYEESTIVIPADDPAALEAAGVLLSAGG [r13_670_JUSTAS] | 0.563 ± 0.07 kcal/mol
58 | SAGGSAGGSASVTVVPSPGPTTTVVTFSPDDTVTVTTHTVDPSAATSTPTTTTVSLSDPAAASAGGSAGGSA [r18_503_JUSTAS] | 2.08 ± 0.044 kcal/mol
59 | SAGGSAGGSSMTITVTDLVTGEPGEIPEELKAELAAEAEESGSAVTFEITTPDGKKYRAEITPSAGGSAGGS [r12_41_JUSTAS] | 0.928 ± 0.029 kcal/mol
60 | SAGGSAGGSAGSMSLPVTELVVESVDPLEGVLVVKVKGTLPDGSEVELTLEFKPDEPLELSAGGSAGGSAGG [r11_211_JUSTAS] | 0.992 ± 0.043 kcal/mol
61 | SAGGSATLTLEAEFRLEDGTTVRVRVEVSPDGTVRIEVEVLPAPPPPPKVEVKEVFTTADGRKVLLSAGGSA [r2_78_TrROS_Hall] | 1.2 ± 0.035 kcal/mol
62 | SAGGSAGGSAGFYKAKLKILKTKVYSNEKGTKKKTYKPVLILEELIPPKIPKELWEKLNKSAGGSAGGSAGG [r11_318_TrMRF] | 0.836 ± 0.3 kcal/mol
63 | SAGIPYRVLELEIPGVGVRVEVRLAPDGRIVEVRVTVVPVPPVPPALPLRPELLVPDEDGRWYSPEELLSAG [r5_685_TrMRF] | 2.68 ± 0.059 kcal/mol
